Experimental data published in publication PMC4066765, “Insights into how Spt5 functions in transcription elongation and repressing transcription coupled DNA repair” (Nucleic Acids Research, 2014).

Target: T1, Rpb1, largest subunit of RNA polymerase II (S. cerevisiae, UniProt P04050 1-1733)
T1 construct: Rpb1, largest subunit of RNA polymerase II, S. cerevisiae; detected and immunoprecipitated with antibody 8WG16; Stands in the cell as part of the 12-subunit RNAP II; in the co-IP it is the bait (8WG16); also called RNAP II; core RNAP II (immunoprecipitated through Rpb1); source: endogenous, S. cerevisiae (BJ5465 derivatives); in living cells (cross-linking) and in solubilised chromatin fraction …
Assay: co-IP; chromatin fraction of log phase yeast cells solubilised by sonication in 50 mM HEPES pH 7.5, 140 mM NaCl, 1% Triton X-100, 0.1% sodium deoxycholate, 1 mM EDTA, 0.1% SDS; immunoprecipitated with 4 μg anti-Rpb1 8WG16; blots with 8WG16, 2Y14 and anti-Myc; cells expressing full-length, KOW4-deleted or KOW4-5-deleted Spt5
Conditions: partners not purified

T1 sequence (P04050 whole entry): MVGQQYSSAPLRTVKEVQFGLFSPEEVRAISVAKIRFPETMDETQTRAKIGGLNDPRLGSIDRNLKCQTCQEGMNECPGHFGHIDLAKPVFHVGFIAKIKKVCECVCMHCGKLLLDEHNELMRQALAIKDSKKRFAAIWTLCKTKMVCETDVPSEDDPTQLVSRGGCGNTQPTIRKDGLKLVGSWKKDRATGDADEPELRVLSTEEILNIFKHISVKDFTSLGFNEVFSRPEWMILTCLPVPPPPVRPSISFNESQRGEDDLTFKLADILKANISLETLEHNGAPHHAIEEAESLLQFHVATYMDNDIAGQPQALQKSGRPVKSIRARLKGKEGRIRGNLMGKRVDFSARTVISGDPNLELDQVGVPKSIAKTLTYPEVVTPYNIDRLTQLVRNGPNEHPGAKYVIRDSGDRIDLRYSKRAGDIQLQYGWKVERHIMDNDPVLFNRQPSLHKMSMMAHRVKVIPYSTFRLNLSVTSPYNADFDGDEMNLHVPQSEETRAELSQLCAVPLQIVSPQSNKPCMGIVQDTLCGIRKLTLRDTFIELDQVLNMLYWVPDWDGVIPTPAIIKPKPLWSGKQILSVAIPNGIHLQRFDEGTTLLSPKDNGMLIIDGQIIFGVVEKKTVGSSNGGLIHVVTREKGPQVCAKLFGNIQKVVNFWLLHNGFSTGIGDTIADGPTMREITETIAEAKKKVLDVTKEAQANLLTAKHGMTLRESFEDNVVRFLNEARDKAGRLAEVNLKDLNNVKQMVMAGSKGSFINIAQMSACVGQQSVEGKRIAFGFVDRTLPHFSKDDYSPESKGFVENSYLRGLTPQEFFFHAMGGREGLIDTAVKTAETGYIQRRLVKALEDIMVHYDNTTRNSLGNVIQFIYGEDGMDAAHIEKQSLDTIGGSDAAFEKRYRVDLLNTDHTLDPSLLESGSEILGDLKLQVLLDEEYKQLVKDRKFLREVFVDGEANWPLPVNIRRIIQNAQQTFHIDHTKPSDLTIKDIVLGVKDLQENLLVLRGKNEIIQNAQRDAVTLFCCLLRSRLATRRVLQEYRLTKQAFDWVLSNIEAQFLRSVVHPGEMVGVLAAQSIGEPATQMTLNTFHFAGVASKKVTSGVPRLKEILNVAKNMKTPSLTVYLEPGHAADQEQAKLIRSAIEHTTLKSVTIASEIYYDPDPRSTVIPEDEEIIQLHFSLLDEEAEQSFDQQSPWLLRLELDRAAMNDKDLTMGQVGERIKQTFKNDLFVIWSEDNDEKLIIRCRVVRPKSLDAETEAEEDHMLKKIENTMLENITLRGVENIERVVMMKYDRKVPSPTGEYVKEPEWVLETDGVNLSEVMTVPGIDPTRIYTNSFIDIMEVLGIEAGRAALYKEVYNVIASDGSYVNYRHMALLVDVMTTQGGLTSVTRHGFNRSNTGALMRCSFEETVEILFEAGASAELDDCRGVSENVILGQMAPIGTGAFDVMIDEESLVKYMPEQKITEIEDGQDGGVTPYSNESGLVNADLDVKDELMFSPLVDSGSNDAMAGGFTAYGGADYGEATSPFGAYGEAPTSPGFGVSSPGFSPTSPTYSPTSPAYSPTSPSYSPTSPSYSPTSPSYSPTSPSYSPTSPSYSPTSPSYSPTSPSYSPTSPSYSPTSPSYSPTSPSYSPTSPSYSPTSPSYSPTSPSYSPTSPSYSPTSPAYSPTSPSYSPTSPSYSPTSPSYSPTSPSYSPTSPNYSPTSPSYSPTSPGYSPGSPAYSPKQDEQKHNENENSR

fold reduction of co-immunoprecipitated Rpb4 in cells with KOW4-5-deleted Spt5 against cells with full-length Spt5: > 2 fold
B1: Rpb4 (endogenous) (natural protein, S. cerevisiae, UniProt P20433 1-221, looked up)
chain: MNVSTSTFQTRRRRLKKVEEEENAATLQLGQEFQLKQINHQGEEEELIALNLSEARLVIKEALVERRRAFKRSQKKHKKKHLKHENANDETTAVEDEDDDLDEDDVNADDDDFMHSETREKELESIDVLLEQTTGGNNKDLKNTMQYLTNFSRFRDQETVGAVIQLLKSTGLHPFEVAQLGSLACDTADEAKTLIPSLNNKISDDELERILKELSNLETLY
notes: Rpb4, subunit of RNA polymerase II, S. cerevisiae; detected with antibody 2Y14; source: endogenous, S. cerevisiae (BJ5465 derivatives), in solubilised chromatin fraction
